B1: SPDEF (parent)
chain: YPEDSSWAAKAPGASSREEPPEEP
B2: WEE1 (parent)
chain: INPFTPDSLLLHSSGQCRRRKRTY

Variants of: B1
Experiment: protein stability index of a GFP-peptide fusion (GPS, HEK-293T) (PSI 1-6); higher = more stable
Details: c terminus: a fixed tail appended
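Note: lentivirally expressed fusions sorted by FACS into six bins by GFP to DsRed ratio, PSI derived from sequencing read proportions per bin multiplied by bin number.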

Protein stability index, by site and new letter:
P21: G 4.04 | H 4.13 | R 4.25 | T 3.64 | V 3.91 | K 3.29
E23: K 2.69 | G 3.9 | D 4.44 | Y 3.65 | R 3.6 | N 3.58 | C 4.3
K10: T 3.36 | Y 1.79 | H 3.26 | A 2.79 | S 3.69 | C 2.56 | I 3.65 | F 2.79 | N 4.19
R17: C 3.96 | W 4.23 | S 4 | A 3.11 | F 4.27 | H 4.67 | T 4.06 | Q 4.06 | L 3.62 | M 4.22
A11: P 4.6 | I 3.51 | N 4.59 | H 4.13 | L 3.76 | S 4.01 | M 2.63 | K 3.9 | Y 3.75 | E 3.99 | F 3.71 | D 4.51 | W 3.56
P20: L 3.11 | R 2.98 | V 4.26 | G 4.43 | Q 3.46 | N 3.62 | T 3.8
E18: Y 3.46 | N 3.43 | F 3.05 | W 3.3 | V 4.17 | I 4 | D 4.86 | S 4.18 | M 3.77 | T 3.24 | Q 3.37 | C 2.82 | R 4.32
A9: E 5.42 | I 3.23 | H 3.4 | T 4.32 | R 4.36 | Y 2.88 | V 3.82 | M 4.11 | W 3.11 | P 4.23
A8: P 5.38 | R 3.28 | D 5.61 | H 2.87 | Q 4.34 | I 3.72 | C 4.09 | Y 3.17 | L 4.72 | F 3.33
P24: Y 4.17 | N 4.54 | D 4.17 | E 3.48 | R 3.86
D4: Q 3.09 | T 2.39 | P 2.09 | N 2.4 | I 3.25
Y1: M 5.93 | S 5.55 | F 3.03 | C 5.04 | T 5.68 | L 5.79 | D 5.97 | V 5.76 | H 5.7 | K 5.73 | N 5.56
A14: P 3.94 | D 4.37 | Y 3.89 | R 4.16 | W 3.31 | I 4.56 | E 3.88 | T 4.03 | M 3.15 | S 4.95
G13: A 3.64 | P 3.94 | D 3.36 | E 4.05 | Y 3.49
S15: Y 3.1 | M 3.77 | G 3.53 | K 3.23 | P 4.36 | R 3.96 | H 4.72 | N 3.9 | E 4.14 | L 3.58 | D 4.61 | I 4.11 | Q 3.47
E22: V 4.23 | A 4.38 | H 4.06 | C 3.49 | D 3.4 | F 3.43 | Y 3.78 | K 3.88 | P 3.06 | S 2.71
W7: A 5.85 | H 5.95 | M 4.42 | T 5.98 | P 5.38 | Y 5.92 | S 5.79 | L 5.68 | R 5.96 | D 6 | F 5.86
E19: N 4.32 | S 4.97 | V 4.48 | K 3.91 | C 3.58 | Q 3.69 | F 3.06 | W 3.53
S16: N 3.53 | F 4.2 | M 4.67 | L 4.36 | T 2.85 | Q 2.88 | A 3.72 | I 3.86 | V 3.78 | Y 3.73 | C 3.83 | P 3.72
P12: S 4.16 | A 4.12 | C 3.31 | H 4.11 | R 3.76 | Q 4.18 | N 3.89 | F 3.59 | L 3.33 | T 4.58 | D 3.97
S6: A 3.6 | V 2.94 | T 4.57 | Y 3.85 | N 4.9 | W 1.27 | E 5.03 | I 2.51
S5: W 3.99 | H 3.99 | K 4.49 | P 4.06 | A 4.69 | T 4.55 | M 4.58 | F 3.86
P2: W 4.68 | T 2.95 | N 5.78 | H 2.25 | A 1.79 | F 5.57 | D 5.73 | M 5.18 | K 5.1 | R 5.43 | I 2.53
E3: N 2.49 | Y 2.37 | A 2.01 | R 3.78 | S 2.66 | W 2.18 | I 4.92 | D 4.24 | T 3.82 | V 4.09 | K 3.9 | G 2.72 | F 2.99 | P 3.15 | M 2.49 | L 4.69 | H 3.05

Variants of: B2
Experiment: as above
Details: c terminus: a fixed tail appended

Protein stability index, by site and new letter:
K21: N 3.59 | C 2.02 | E 3.16 | R 3.11 | S 3.18 | A 3.77 | D 2.9 | L 2.72 | V 3.16 | G 3.58 | W 2.4 | F 2.42 | Q 2.46 | Y 2.48 | I 3 | H 3.38 | T 2.83 | P 3.08 | M 3.25
R20: C 2.5 | E 3.15 | L 2.75 | M 2.85 | N 3.45 | Q 2.81 | I 2.95 | T 3.32 | A 3.08 | S 2.97 | H 3.62 | G 3.41 | W 1.82 | F 2.48 | Y 2.61 | D 3.12 | K 3.23 | V 2.94 | P 3.12
R19: N 3.38 | W 2.66 | S 3.78 | P 3.03 | Y 2.83 | M 2.91 | V 2.69 | T 2.78 | Q 3.27
T23: E 3.37 | H 3.7 | P 3.26 | W 2.79 | K 4.29 | S 3.93 | A 3.79 | C 2.7 | R 3.56 | D 4.11 | V 3.06 | Y 3.38 | F 3.36 | N 3.5 | L 3.5 | G 3.87 | I 2.78 | M 3.6 | Q 3.42
Y24: D 4.27 | I 3.01 | V 3.95 | T 3.96 | L 3.04 | G 4.07 | H 3.75 | Q 3.69 | M 3.48 | N 3.75 | R 4.52 | K 4.27 | P 3.81 | F 3.12 | C 3.8 | E 3.13 | A 4.33 | W 3.36 | S 4.45
R22: V 2.8 | N 3.91 | S 3.31 | T 3.45 | C 3.17 | G 3.55 | M 3.08 | Y 2.87 | H 3.5 | L 2.92 | P 3.23 | A 3.67 | F 2.71 | Q 3.19 | I 3.11 | K 3.59 | W 2.27 | E 3.1 | D 3.37
